This assay addresses human GPC3 on cells (HepG2 cells expressing full length human GPC3; GPC3-transfected HEK293T cells) (human) (UniProt P51654). The assay can be described thus: cell-based or functional assay.

GC33 CAR (GC33 Benchmark) showed an IFN-gamma cytokine release (pg/mL), E:T 1:1 of 8180 pg/mL; an IFN-gamma cytokine release (pg/mL), E:T 1:3 of 2760 pg/mL; an IFN-gamma cytokine release (pg/mL), E:T 3:1 of 15000 pg/mL; a Specific lysis (%) of HepG2 cells, E:T 1:1 of 9.78%. Further, the Specific lysis (%) of HepG2 cells, E:T 1:3 stood at 4.57% and the Specific lysis (%) of HepG2 cells, E:T 3:1 stood at 17.2%.

For the origin of these results see patent US12492252.
